From the nanobody polyreactivity screen of Harvey et al. (2022) come the findings set out here.

This data set can be described thus: yeast display, Sf9 membrane polyspecificity reagent, FACS + sequencing; frameworks hold sequencing errors. The essentials: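 Galactose-induced (36–48 hours) yeast carrying a synthetic nanobody display library were exposed to 10% biotinylated, detergent-solubilized Sf9 membrane reagent at 4 °C for 1 hour. FACS followed streptavidin microbead enrichment, using low and high (top ~1%) gates for expression (anti-HA) and reagent binding (streptavidin). Colony PCR, MiSeq 2 × 250 sequencing and CDR-length filtering followed. Labels for polyreactivity reflect the gate of origin.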
“QVQLVESGGCLVQAGGSLRLSCAASGSIFDYNAMGWYRQAPGKEREFVAAISSSAGSTYYADSVKGRFTISRDNAKNTVYLQMNSLKPEDTAVYYCAADWYDFSFPYYEYEFWGQGTQVTVSS”: the “polyreactivity (PSR sort gate)” value is “low polyreactivity”.

As to “QVQLVESGGGLVQAGGSLRLSCAASGLIFYGNAMGWYRQAPGKERELVADITGSSVRTYSADSVKGRFTISRDNAKNTVYVQMNSLNRKIPRSITALNVSCTSVVVGYDYWGQGTQVTVSS”, the “polyreactivity (PSR sort gate)” value is listed as “low polyreactivity”.

Take “QVQLVESGGGLVQAGGSLRLSCAASGSTFVGYAMGWYRQAPGKERELVADIDSIGGSTYYADSVKGRFTISRDYAKNTVYLQMNSLKPEDTAVYYCAARRFDTALVLYDYWGQGTQVTVSS”: the “polyreactivity (PSR sort gate)” value is “low polyreactivity”. Next, “QVQLVESGGGLVQAGGSLRLSCAASGRTFDAYAMGWYRQAPGKERELVAAISSGGSTNYADSVKGRFTISRDHAKNTVYLQKNSLKPEDTAVYYCAAEYIQYLFYSVRVAYDYWGQGTQVTVSS”: “low polyreactivity”; “QVQLVESGGGLVQAGGSLRLSCAPSGNIFETYAMGWYRPAPGKERELVAVITRGGSTYYADSVKGRFTISRDNAKNTVYLQMNSLKPEDTAVYYCARDAYDDWYGLTDDKSDYWGQGTQVTLSS”: “low polyreactivity”. Under “QVQLVDSGGGLVQAGGSLRLSCAASGFSLSINAMGWYRQAPGKERELVDGISWSGGSTYYADSVKGRFTISRDNAKTTFYLQMNSLKTEDTAVYYCNADLFLFVYFGQYYWRTYNYWGQGTQVTVSS” stands “low polyreactivity”; under “QVQLVESGGGLVQAGGSLRLSCAASGIIFAYNAMGWYRQAPGKERELVAAISVIGGTTYYADSVKGRFTISRDNAKNTVYLQMNSLKPEDTAVYYCAVDSVQYGGGYERLHELYYWGQGTQVTVSS”, “low polyreactivity”; under “QVQLVESGGGLVQAGGSLRISCAASGRTFRKYGMGWYRQAPGKERELLAAITRSGDSTYYADSVKARFTISRDNAMNTVYLQMNSLKPEDTAVYYCNTDGPRTYDTWEYDYWGQGTQVTVSS”, “high polyreactivity”. Take “QVHLVESGGGLVQAGGSLRLSCAASGSIFSVYTRGWYRQAPGKERELVAAISTGGGSTYYADSVKGRFTISRDNAKNTVYLQMNSLKPEDTAVYYCATDYGWAPSYWYDSCGQGTQVTVSS”: the “polyreactivity (PSR sort gate)” value is “low polyreactivity”. Next, “QVQLVESGGGLVQAGGSLRLSCAASGSTFVPYTMGWYRQAPGKERELVAVISSSGGNTYYADSVKGRFTISRDNAKNTVYLQMNSLKPEDTAVYYCNKDYWYPNYRRYEYWGQGTQVTVSS”: “low polyreactivity”; “QVQLVESGGGLVQAGGSLRLSCPACGRTFNRYAMGWYRQAPGKERELVATISNSGRTYYADSVKGRFTISRDNAKNTVYLQMNSLKPEDTAVYYCAAQLPSYYKYPRHDYWGKGTQVTVSS”: “high polyreactivity”; “QVQLLESGCGLVQAGGSLRLSCMASGSSLGDRMSWYRQAPGKEHELVATIYDGGITYYADSMKGRFTISRENAKNSVYLQMNSLRPEDTAVYYCGDSFEGYRYHVYCGQGTQVTVSS”: “low polyreactivity”. With “QVQLVESGGGLVQAGGSLRLSCAASGITFVDYVMGWYRQAPGKERELVAAISRGGSRTKYADSVKGRFTISRDNAKNTVYLQMNSLKPEDTAVYYCAAPWLVNHYYPSQEYDYWGQGTQVTVSS”, the “polyreactivity (PSR sort gate)” value is “high polyreactivity”. “QVQLVESGGGLVQAGGSLRLSCAASGIILYYNAMGWYRQAPGKERALVAAITTSGVSTYYADSVKGRFTISRDNAKNTVYLQMNSLKPEDTAVYYCNADYLYGRYTYDYWGQGTQVTVSS”: the “polyreactivity (PSR sort gate)” value is given as “low polyreactivity”. Next, “QVQLVESGGGLVQAGGSLRLSCAASGSIFNVNTMGWYRQAPGKERELVAAISYSGGSTYYADSVKGRFTISRDTAKNTVYLQMNSLKPEDTAVYYCAAESYIEYYLKYDYWGQGTQVTVSS”: “low polyreactivity”; “QVQLVESGGGLVQAGGSLRLSCAASGSIFIFYAMGWYRQAPGNERELVADITSDGASTYYADSVKGRFTISRDNAKNTVYLQMNSLKPEDTAVYYCAADYIDSSAYDYWGQGTQVTVSS”: “low polyreactivity”. For “QVQVVESGGGLVQAGGSIRLSCAASGSILSRYAMGWYRQAPGKERELFAAITSSGGTTYYADSVKGRFTISRDTAKNTVYLQMNSLKPEDTAVYYCADHGSRYGYGDFYYWGQGTQVTVSS”, the “polyreactivity (PSR sort gate)” value is “high polyreactivity”. For “QVQLVESGGGLVQAGGSLRLSCAATGFTFIHYGMGWYRQAPGKERELVAAITWRGDRTYADSVKGRFTISRDNANNTVYLQMNSLKPEDTAVYYCAAVSANQDFDYWGQGTQVTVSS”, the “polyreactivity (PSR sort gate)” value is “high polyreactivity”. Under “QVKLVETGGGLVQAGGSLRLSCAASGSTFEHYAMGWYRQAPGKERELVAAISYTGGNTYYAYSVKGRFTISRDNAKNTVYLQMNSLKPEDTAVYYCAAAPLYYHRRGYYYWGQGTQVTVSS” stands “high polyreactivity”; under “QVQLVESGGGLVQAGGSLRLSSASSGFTFNKYAMGRYRQAPGKERELVAAISSSGGSTRYADSVKGRFTISRDNAKNTVYLQMNSLNPEDTAVFYCAVYVTRDSGWLLYDYWGQGTQVTVSS”, “high polyreactivity”; under “QVQLVESGGGLVQAGGSLRLSCAASGRIFHKYAMGWYRQAPGKERELVATIRSDDITYYADSVKGRFTISRDNAKNTVYLQMNSLKPEDTAVYYCAAYFWRYSSLYYYWGQGTQVTVSS”, “high polyreactivity”. With “QVQLVESGGGLVQAGGSLRLSCAASGRIFAGYAMGWYRQAPGKERELVATITYRGGNTYYADSVKGRFTISRDNAKNTVYLQMNSLKPEDTAVYYCAKGPYRYLYRAYPGGYWGQGTQVTVSS”, the “polyreactivity (PSR sort gate)” value is “high polyreactivity”. Next, “QVQLVESGGGLVQAGGSLRLSCAASGSIFSLNAMGWYRQAPGKERELVAASGGGSTYYADSVKGRFTISRDNAKNTVYLQMNSLKPEDSAVYYCAARVLTDELDYWGQGTQVTVSS”: “low polyreactivity”; “QVQLVESGGGLVQAGGSLRLSCAASGRIFGAYAMGWYRQARGKERELVAAIDIRGGNTYYADSVKGRFTISRDNAKNTVYLQMNSLKPEDTAVYYCPADTWYDAYNYWGQGTQVTVSS”: “low polyreactivity”. Take “QVQLVESGGGLVQAGGSLRLSCAASGSTFKLYAMGWYRPAPGKERELVAAITSNCGRTYYADSVKGRFTISRDIAKNTVYLQMNSLKPEDTAVYYCAARRYAPAGGYDYWGQGTQVTVSS”: the “polyreactivity (PSR sort gate)” value was “high polyreactivity”.

As for “QVQLVESGGGLVQAGGSLRLSCAASGRIFHYYAMGWYRQAPGTERELVAAITSSGGSTYYADSVKGRFTISRDNAKNTVYLQMNSLKPEDTAVYYCAAGLIVGRFLRYDYWGQGTQVTVSS”, the “polyreactivity (PSR sort gate)” value is reported as “high polyreactivity”. On to “QVQLVESGGGLVQAGGSLRLSCAASGGTFGYNAMGWYRQAPGKERELVAAISYTGDSTYYADSVKGRFTISRDNAKNTVDLQMNSLKPEDTAVYYCAASVYYYRYNYWGQATQVTVSS”, for which the “polyreactivity (PSR sort gate)” value is “low polyreactivity”. Next, “QVQLVESGGGLVQAGGSLRLSCAASGSILVRYAMGWYRQAPGKERELVAAITYSGGSTYYADSVKGRFTISRDNAKNTVYLQMNSLKPEDTAVYYCAADVWWSYYRYDYWGQGTQVTVSS”: “low polyreactivity”; “QVQLVESGGGLVQAGGSLRLSCAASGFTFSWYAMGWYRQAPGKERELVAAISSAGNTNYADSVKGRFTISRDNAKNTVYLQMNSLKPEDTAVYYCAKRDYWGQGTQVTVSS”: “high polyreactivity”; “QVQLVESGGGLVQAGGSLRLSCAASGRLMGWYRQAPGKERELVAAIRVSSGSTYYADSVKGRFTISRDNAKNTVYLQMNSLKPEDTAVYYCAKYVYLGYVRQVPYFRYDYWGQGTQVTVSS”: “high polyreactivity”. Under “QVQLVESGGGLVQAGGSLRLSCAASGRIFDGYAMGWYRQAPGKERELVAAISSRGGRTYYADSVKGRFTISRDNAKNTVYLQMNSLKPEDTAVYYCAADDPYGEGDYWGQGTQVTVSS” stands “low polyreactivity”; under “QVQLVESGGGLVQAGGSLRLSSAASGSILTPNAMGWYRQAPGKERELVAAINYSGGSTYYADSVKGRFTISRDTAKNTVYLQMNSLKPEDTAVYYCAVPYWYGRGHCYWGQGTQVTVSS”, “low polyreactivity”. Next, “QVHLVESGGGLVQAGGSLRLSCAASGSTLYRYAMGWYRQAPGKERELVATITRSGGSTYYADSVKGRFTISRDNAKNTVYLQINSLKPEDTAVYYCDAYRKVGGFSRGDYWGQGTKVTVSS”: “high polyreactivity”; “QVHLVESGGGLVQAGGSLPLSCAASGRTFIYNTMGWYRPAPGKERELVAAITRNGGSTNYADSVKGRFTISRDNAKNTVYLQMNSLKPEDTAVYYCAAKYIRFARSRDYWGQGTQVTVSS”: “high polyreactivity”. Turning to “QVQLVESGGGLVQAGGSLRLSCAASGRTFRYYAMAWYRQAPGKERELVAAIRSGGITNYADSVKGRFTISLDNAKYTVYLQMNRLKPEDTAVYYCAQAIRGHYWGQGTQVTVSS”, the “polyreactivity (PSR sort gate)” value is “high polyreactivity”. Next, “QVQLVESGGGLVQAGGSLRLSCAASGSTARYAMGWNRQAPGKERELVAAITGRTGRTNYADSVKGRFTISRDNAKITVYVQMNSLKPEDTAVYYCAKRAWRAVRWTYGYWGQGSQVTVSS”: “high polyreactivity”; “QVQLVESGGGLVQAGGSLRLSCAASGFTFIRNAMGWYRQAPGKERELVAVITRSGGSTYYADSVKGRFTISRDNAKNTVYLQMNSLKPQDTAVYYCAATLRYSPRRRYDYWGQGTQVTVSS”: “high polyreactivity”. Turning to “QVQLVESGGGLVQAGGSLRLSCAASGSIYIYYAMGWYRQAPVKERELVADITFSAGSNTYYADSVKGRFTISRDNAKNTVYLQMNSLKPEDTAVYYCNADRGFFGSITEYDYWGQGTQVTVSS”, the “polyreactivity (PSR sort gate)” value is reported as “low polyreactivity”. Next, “QVQLVESGGGLVQAGGSLRLSCAASGSIFPLYDMGWYRLAPGKERELVAGITGSGGSTYYADSVKGRFTISRDNAKNTVYLQMNSLKPEDTAVYYCAADYSLYGWWFRNDYWGQGTQVTVSS”: “low polyreactivity”; “QVQLVESGGGLVQAGGSLRLSCAASGFILGTNAMGWYRQAPGKERELVAAISYSGGSTNYADSVKGRFTISRDNAKNTVYLQMYSLKPEDTPVYYCNRDPRKYGKLDYWGQGTQVTVSS”: “low polyreactivity”; “QVQLVESGGGLVQAGGSLRLSCAASGSTFASNTMGWYRQAPGKERELVAAITQSGGTTYYADSVKGRFTISRDNAKNTVYLQMNSLKPEDTAVYYCAADATFIIRYLSRSDYWGQGTQVTVSS”: “low polyreactivity”.
